T1: FcγRIIb (human, UniProt P31994 43-217)
T1 construct: extracellular domain; Soluble extracellular domain with C-terminal His tag, used as analyte in Biacore; also called FcgRIIb; 2b; not shown: His tag attached to the C terminus
T1 sequence (looked up): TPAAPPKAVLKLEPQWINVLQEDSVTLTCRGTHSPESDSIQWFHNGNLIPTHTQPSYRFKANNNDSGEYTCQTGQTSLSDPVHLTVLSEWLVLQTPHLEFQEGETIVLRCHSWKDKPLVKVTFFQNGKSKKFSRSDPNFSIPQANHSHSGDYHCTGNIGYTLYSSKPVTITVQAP


Key:
FcγRIa [1] = target: T2, FcγRIa (human, UniProt P12314 16-292); assay: SPR (Biacore), antibody captured, FcγR as analyte; relative to GpH7-A5/GpH7-B3/GpL16-k0 = 100
T2 construct: extracellular domain; Soluble extracellular domain with C-terminal His tag, used as analyte in Biacore; also called FcgRI; 1a; not shown: His tag attached to the C terminus
Protocol: (§1) The heterodimerized antibodies He Abs in which one of the H chains was introduced with an alteration were assayed for their binding activities to each activating FcγR and inhibitory FcγR according to the method described in Example 4. […] The activating FcγRs in FIGS. 26, 27, 28, and 29 are FcγRIa, FcγRIIa (R), FcγRIIa (H), and FcγRIIIa, respectively.
(§2) Analysis of interaction between objective antibody and the FcγR was carried out using Biacore T100 (GE Healthcare). HBS-EP+ (GE Healthcare) was used as the running buffer, and the measurement temperature was set to 25° C. Chips produced by immobilizing the antigen peptide by the amine coupling method to a Series S Sencor Chip CM5 (GE Healthcare), or alternatively, chips produced by allowing preliminarily biotinylated antigen peptides to interact with and immobilize onto a Series S Sensor Chip SA (certified) (GE Healthcare) were used. Antibodies of interest were captured onto an antigen peptide-immobilized chip, and allowed to interact to each FcγR diluted with running buffer. To regenerate and repeatedly use the chip, the antibodies captured on the chip were washed off by reacting 10 mM glycine-HCl, pH 1.5.
T2 sequence (P12314 16-292): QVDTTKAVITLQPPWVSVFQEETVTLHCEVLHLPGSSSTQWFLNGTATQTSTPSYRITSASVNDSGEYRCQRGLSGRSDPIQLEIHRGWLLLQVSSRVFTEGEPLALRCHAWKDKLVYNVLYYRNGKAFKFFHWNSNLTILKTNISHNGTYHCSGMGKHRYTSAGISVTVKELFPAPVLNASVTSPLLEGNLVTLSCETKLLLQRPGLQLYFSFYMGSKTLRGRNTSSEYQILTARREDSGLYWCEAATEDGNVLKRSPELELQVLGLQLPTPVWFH

FcγRIIb = target: T1, FcγRIIb; assay: as above
Protocol: as §1, §2

FcγRIa [2] = target: T3, FcγRIa (human, UniProt P12314 16-292); assay: SPR (Biacore), captured antibody, FcγRIa analyte; relative to HoCon Ab GpH7-B3/GpL16-k0 = 100
T3 construct: extracellular domain; soluble extracellular domain with C-terminal His tag, expressed in FreeStyle293 cells; also called FcgRI; FcgRIa
T3 sequence (P12314 16-292): as above

Row | He/Con_1a (FcγRIa [1]) | He/Con_2b (FcγRIIb) | Ho/Con_1a (FcγRIa [2]) | Binder
1 | 95 % of control (=100) | 116 % of control (=100) | – | GpH7-A5/GpH7-B3 variant P331_10E/GpL16-k0 (antibody, human IgG1, kappa, Heterodimerized anti-glypican-3 IgG1; alteration in the GpH7-B3 chain only; also called He Ab) heavy 1: not shown heavy 2: not shown light: DIVMTQSPLSLPVTPGEPASISCQASESLVHSNRNTYLHWYLQKPGQSPQLLIYKVSNRFSGVPDRFSGSGSGTDFTLKISRVEAEDVGVYYCSQNTHVPPTFGQGTKVEIERTVAAPSVFIFPPSDEQLKSGTASVVCLLNNFYPREAKVQWKVDNALQSGNSQESVTEQDSKDSTYSLSSTLTLSKADYEKHKVYACEVTHQGLSSPVTKSFNRGEC
2 | – | – | 102 % of control | GpH7-B3 variant P271_02A/GpL16-k0 (antibody, human IgG1, kappa, homodimerized IgG1, mutation in both H chains; also called Ho Ab) heavy: not shown light: DIVMTQSPLSLPVTPGEPASISCQASESLVHSNRNTYLHWYLQKPGQSPQLLIYKVSNRFSGVPDRFSGSGSGTDFTLKISRVEAEDVGVYYCSQNTHVPPTFGQGTKVEIERTVAAPSVFIFPPSDEQLKSGTASVVCLLNNFYPREAKVQWKVDNALQSGNSQESVTEQDSKDSTYSLSSTLTLSKADYEKHKVYACEVTHQGLSSPVTKSFNRGEC
3 | 98.1 % of control (=100) | 236 % of control (=100) | – | GpH7-A5/GpH7-B3 variant V266_08L/GpL16-k0 (antibody, human IgG1, kappa, Heterodimerized anti-glypican-3 IgG1; alteration in the GpH7-B3 chain only; also called He Ab) heavy 1: not shown heavy 2: not shown light: DIVMTQSPLSLPVTPGEPASISCQASESLVHSNRNTYLHWYLQKPGQSPQLLIYKVSNRFSGVPDRFSGSGSGTDFTLKISRVEAEDVGVYYCSQNTHVPPTFGQGTKVEIERTVAAPSVFIFPPSDEQLKSGTASVVCLLNNFYPREAKVQWKVDNALQSGNSQESVTEQDSKDSTYSLSSTLTLSKADYEKHKVYACEVTHQGLSSPVTKSFNRGEC
4 | 95.9 % of control (=100) | 108 % of control (=100) | – | GpH7-A5/GpH7-B3 variant S239_03V/GpL16-k0 (antibody, human IgG1, kappa, Heterodimerized anti-glypican-3 IgG1; alteration in the GpH7-B3 chain only; also called He Ab) heavy 1: not shown heavy 2: not shown light: DIVMTQSPLSLPVTPGEPASISCQASESLVHSNRNTYLHWYLQKPGQSPQLLIYKVSNRFSGVPDRFSGSGSGTDFTLKISRVEAEDVGVYYCSQNTHVPPTFGQGTKVEIERTVAAPSVFIFPPSDEQLKSGTASVVCLLNNFYPREAKVQWKVDNALQSGNSQESVTEQDSKDSTYSLSSTLTLSKADYEKHKVYACEVTHQGLSSPVTKSFNRGEC
5 | – | – | 108 % of control | GpH7-B3 variant A330_09D/GpL16-k0 (antibody, human IgG1, kappa, homodimerized IgG1, mutation in both H chains; also called Ho Ab) heavy: not shown light: DIVMTQSPLSLPVTPGEPASISCQASESLVHSNRNTYLHWYLQKPGQSPQLLIYKVSNRFSGVPDRFSGSGSGTDFTLKISRVEAEDVGVYYCSQNTHVPPTFGQGTKVEIERTVAAPSVFIFPPSDEQLKSGTASVVCLLNNFYPREAKVQWKVDNALQSGNSQESVTEQDSKDSTYSLSSTLTLSKADYEKHKVYACEVTHQGLSSPVTKSFNRGEC
6 | 99.3 % of control (=100) | 152 % of control (=100) | – | GpH7-A5/GpH7-B3 variant V266_07I/GpL16-k0 (antibody, human IgG1, kappa, Heterodimerized anti-glypican-3 IgG1; alteration in the GpH7-B3 chain only; also called He Ab) heavy 1: not shown heavy 2: not shown light: DIVMTQSPLSLPVTPGEPASISCQASESLVHSNRNTYLHWYLQKPGQSPQLLIYKVSNRFSGVPDRFSGSGSGTDFTLKISRVEAEDVGVYYCSQNTHVPPTFGQGTKVEIERTVAAPSVFIFPPSDEQLKSGTASVVCLLNNFYPREAKVQWKVDNALQSGNSQESVTEQDSKDSTYSLSSTLTLSKADYEKHKVYACEVTHQGLSSPVTKSFNRGEC
7 | 97.8 % of control (=100) | 107 % of control (=100) | – | GpH7-A5/GpH7-B3 variant S239_07I/GpL16-k0 (antibody, human IgG1, kappa, Heterodimerized anti-glypican-3 IgG1; alteration in the GpH7-B3 chain only; also called He Ab) heavy 1: not shown heavy 2: not shown light: DIVMTQSPLSLPVTPGEPASISCQASESLVHSNRNTYLHWYLQKPGQSPQLLIYKVSNRFSGVPDRFSGSGSGTDFTLKISRVEAEDVGVYYCSQNTHVPPTFGQGTKVEIERTVAAPSVFIFPPSDEQLKSGTASVVCLLNNFYPREAKVQWKVDNALQSGNSQESVTEQDSKDSTYSLSSTLTLSKADYEKHKVYACEVTHQGLSSPVTKSFNRGEC
8 | – | – | 102 % of control | GpH7-B3 variant A327_09D/GpL16-k0 (antibody, human IgG1, kappa, homodimerized IgG1, mutation in both H chains; also called Ho Ab) heavy: not shown light: DIVMTQSPLSLPVTPGEPASISCQASESLVHSNRNTYLHWYLQKPGQSPQLLIYKVSNRFSGVPDRFSGSGSGTDFTLKISRVEAEDVGVYYCSQNTHVPPTFGQGTKVEIERTVAAPSVFIFPPSDEQLKSGTASVVCLLNNFYPREAKVQWKVDNALQSGNSQESVTEQDSKDSTYSLSSTLTLSKADYEKHKVYACEVTHQGLSSPVTKSFNRGEC
9 | – | – | 105 % of control | GpH7-B3 variant A330_14T/GpL16-k0 (antibody, human IgG1, kappa, homodimerized IgG1, mutation in both H chains; also called Ho Ab) heavy: not shown light: DIVMTQSPLSLPVTPGEPASISCQASESLVHSNRNTYLHWYLQKPGQSPQLLIYKVSNRFSGVPDRFSGSGSGTDFTLKISRVEAEDVGVYYCSQNTHVPPTFGQGTKVEIERTVAAPSVFIFPPSDEQLKSGTASVVCLLNNFYPREAKVQWKVDNALQSGNSQESVTEQDSKDSTYSLSSTLTLSKADYEKHKVYACEVTHQGLSSPVTKSFNRGEC
10 | 96 % of control (=100) | 114 % of control (=100) | – | GpH7-A5/GpH7-B3 variant P331_15Y/GpL16-k0 (antibody, human IgG1, kappa, Heterodimerized anti-glypican-3 IgG1; alteration in the GpH7-B3 chain only; also called He Ab) heavy 1: not shown heavy 2: not shown light: DIVMTQSPLSLPVTPGEPASISCQASESLVHSNRNTYLHWYLQKPGQSPQLLIYKVSNRFSGVPDRFSGSGSGTDFTLKISRVEAEDVGVYYCSQNTHVPPTFGQGTKVEIERTVAAPSVFIFPPSDEQLKSGTASVVCLLNNFYPREAKVQWKVDNALQSGNSQESVTEQDSKDSTYSLSSTLTLSKADYEKHKVYACEVTHQGLSSPVTKSFNRGEC
11 | 99 % of control (=100) | 101 % of control (=100) | – | GpH7-A5/GpH7-B3 variant S239_06M/GpL16-k0 (antibody, human IgG1, kappa, Heterodimerized anti-glypican-3 IgG1; alteration in the GpH7-B3 chain only; also called He Ab) heavy 1: not shown heavy 2: not shown light: DIVMTQSPLSLPVTPGEPASISCQASESLVHSNRNTYLHWYLQKPGQSPQLLIYKVSNRFSGVPDRFSGSGSGTDFTLKISRVEAEDVGVYYCSQNTHVPPTFGQGTKVEIERTVAAPSVFIFPPSDEQLKSGTASVVCLLNNFYPREAKVQWKVDNALQSGNSQESVTEQDSKDSTYSLSSTLTLSKADYEKHKVYACEVTHQGLSSPVTKSFNRGEC
12 | 85.3 % of control (=100) | 102 % of control (=100) | – | GpH7-A5/GpH7-B3 variant S239_05P/GpL16-k0 (antibody, human IgG1, kappa, Heterodimerized anti-glypican-3 IgG1; alteration in the GpH7-B3 chain only; also called He Ab) heavy 1: not shown heavy 2: not shown light: DIVMTQSPLSLPVTPGEPASISCQASESLVHSNRNTYLHWYLQKPGQSPQLLIYKVSNRFSGVPDRFSGSGSGTDFTLKISRVEAEDVGVYYCSQNTHVPPTFGQGTKVEIERTVAAPSVFIFPPSDEQLKSGTASVVCLLNNFYPREAKVQWKVDNALQSGNSQESVTEQDSKDSTYSLSSTLTLSKADYEKHKVYACEVTHQGLSSPVTKSFNRGEC
13 | 100 % of control (=100) | 192 % of control (=100) | – | GpH7-A5/GpH7-B3 variant S267_07I/GpL16-k0 (antibody, human IgG1, kappa, Heterodimerized anti-glypican-3 IgG1; alteration in the GpH7-B3 chain only; also called He Ab) heavy 1: not shown heavy 2: not shown light: DIVMTQSPLSLPVTPGEPASISCQASESLVHSNRNTYLHWYLQKPGQSPQLLIYKVSNRFSGVPDRFSGSGSGTDFTLKISRVEAEDVGVYYCSQNTHVPPTFGQGTKVEIERTVAAPSVFIFPPSDEQLKSGTASVVCLLNNFYPREAKVQWKVDNALQSGNSQESVTEQDSKDSTYSLSSTLTLSKADYEKHKVYACEVTHQGLSSPVTKSFNRGEC
14 | 99.2 % of control (=100) | 112 % of control (=100) | – | GpH7-A5/GpH7-B3 variant S324_06M/GpL16-k0 (antibody, human IgG1, kappa, Heterodimerized anti-glypican-3 IgG1; alteration in the GpH7-B3 chain only; also called He Ab) heavy 1: not shown heavy 2: not shown light: DIVMTQSPLSLPVTPGEPASISCQASESLVHSNRNTYLHWYLQKPGQSPQLLIYKVSNRFSGVPDRFSGSGSGTDFTLKISRVEAEDVGVYYCSQNTHVPPTFGQGTKVEIERTVAAPSVFIFPPSDEQLKSGTASVVCLLNNFYPREAKVQWKVDNALQSGNSQESVTEQDSKDSTYSLSSTLTLSKADYEKHKVYACEVTHQGLSSPVTKSFNRGEC
15 | – | – | 106 % of control | GpH7-B3 variant A330_08L/GpL16-k0 (antibody, human IgG1, kappa, homodimerized IgG1, mutation in both H chains; also called Ho Ab) heavy: not shown light: DIVMTQSPLSLPVTPGEPASISCQASESLVHSNRNTYLHWYLQKPGQSPQLLIYKVSNRFSGVPDRFSGSGSGTDFTLKISRVEAEDVGVYYCSQNTHVPPTFGQGTKVEIERTVAAPSVFIFPPSDEQLKSGTASVVCLLNNFYPREAKVQWKVDNALQSGNSQESVTEQDSKDSTYSLSSTLTLSKADYEKHKVYACEVTHQGLSSPVTKSFNRGEC
16 | – | – | 102 % of control | GpH7-B3 variant E269_04F/GpL16-k0 (antibody, human IgG1, kappa, homodimerized IgG1, mutation in both H chains; also called Ho Ab) heavy: not shown light: DIVMTQSPLSLPVTPGEPASISCQASESLVHSNRNTYLHWYLQKPGQSPQLLIYKVSNRFSGVPDRFSGSGSGTDFTLKISRVEAEDVGVYYCSQNTHVPPTFGQGTKVEIERTVAAPSVFIFPPSDEQLKSGTASVVCLLNNFYPREAKVQWKVDNALQSGNSQESVTEQDSKDSTYSLSSTLTLSKADYEKHKVYACEVTHQGLSSPVTKSFNRGEC

Reference: patent US20150344570A1 (published 2015)
